In this assay the target is T1, TrkB.T1 peptide FVLFHKIPLDG (not fully specified).
T1 construct: also called target peptide
T1 peptide: FVLFHKIPLDG
Description: bead-based flow cytometry, peptide on beads. The source says:
Murine monoclonal antibody (clone FH1D12) was generated at the Fred Hutchinson Antibody Technology Core Facility. Briefly, male and female 20-week-old C57BL6 mice that were characterized as genetic null for TrkB.T1 (Dorsey, S. G. et al.) In vivo restoration of physiological levels of truncated TrkB.T1 receptor rescues neuronal cell death in a trisomic mouse model. Neuron 51, 21-28 (2006)) were immunized with TrkB.T1 peptide Ac—C(dPEG4)[…]-OH (SEQ ID NO:1) maleimide coupled to KLH carrier protein. Following a 12+ week boosting protocol splenocytes were isolated from high titer mice and electrofused to a subclone of the P3x63-Ag8 myeloma cell line (BTX, Harvard Apparatus). Hybridomas secreting peptide specific antibody were identified and isolated using a ClonePix2 (Molecular Devices, CPII) colony picker. Antibodies from the picked clones were validated for peptide binding by flow cytometry using a cytometric bead array carrying the target peptide. Clone FH1D12 was subcloned (CPII) followed by validation for peptide binding by bead-based flow cytometry. Affinity purified IgG2b lambda from the hybridoma was further characterized by Western blot analysis and IHC tissue staining. Antibody development was performed in Holland Lab and with the Antibody Technology Resource (Fred Hutchinson Cancer Research Center).

No end group written: not given here.

B1: Murine monoclonal antibody (clone FH1D12) to TrkB.T1 (antibody, V domains shown)
VH: VQLQQSGPELARPWASVKISCQAFYTFSRGIHFDIRNTMYWIQWVKQRPGQGLEWIGAIYPGNGDPTYSQNFKDKATLTADKSSNTAYMQLSSLTSEDSAVYYCARYDYGGGFTYWGQGTLVTVSA
VL: QTVVTQESALTTSPGETVTLTCRSSTGAVTTSNYANWVQEKPDHLFTGLIGGINNRAPGVPARFSGSLIGDKAVLTITGAQTEDEAIYFCALWYSNHWVFGGGTKLTVL
notes: also called SPEH1_D12; antibody clone D12
Consider B1, for which the binding result is reported as “binds”.

Source of the values: patent US20230103618A1 (FRED HUTCHINSON CANCER CENTER, published 2023).
